Starred links: 1 amine or outer side, 2 acyl side, 3 side chain; linkers in the order of their positions; H or OH if unused. Non-standard residues stand in square brackets, D forms with d. Primed or numbered codes have the meaning given here. No end group written: not given here. Asuha″ = L-2-amino-8-(hydroxyamino)-8-oxooctanoic acid, O=C(CCCCC[C@H](N[*:1])C(=O)[*:2])NO
Biological target: T1, HDAC6 (histone deacetylase 6) (human, UniProt Q9UBN7 1-1215)
T1 construct: HDAC6, human, full length; source: bought: BPS Bioscience, cat. #50056
T1 sequence (looked up): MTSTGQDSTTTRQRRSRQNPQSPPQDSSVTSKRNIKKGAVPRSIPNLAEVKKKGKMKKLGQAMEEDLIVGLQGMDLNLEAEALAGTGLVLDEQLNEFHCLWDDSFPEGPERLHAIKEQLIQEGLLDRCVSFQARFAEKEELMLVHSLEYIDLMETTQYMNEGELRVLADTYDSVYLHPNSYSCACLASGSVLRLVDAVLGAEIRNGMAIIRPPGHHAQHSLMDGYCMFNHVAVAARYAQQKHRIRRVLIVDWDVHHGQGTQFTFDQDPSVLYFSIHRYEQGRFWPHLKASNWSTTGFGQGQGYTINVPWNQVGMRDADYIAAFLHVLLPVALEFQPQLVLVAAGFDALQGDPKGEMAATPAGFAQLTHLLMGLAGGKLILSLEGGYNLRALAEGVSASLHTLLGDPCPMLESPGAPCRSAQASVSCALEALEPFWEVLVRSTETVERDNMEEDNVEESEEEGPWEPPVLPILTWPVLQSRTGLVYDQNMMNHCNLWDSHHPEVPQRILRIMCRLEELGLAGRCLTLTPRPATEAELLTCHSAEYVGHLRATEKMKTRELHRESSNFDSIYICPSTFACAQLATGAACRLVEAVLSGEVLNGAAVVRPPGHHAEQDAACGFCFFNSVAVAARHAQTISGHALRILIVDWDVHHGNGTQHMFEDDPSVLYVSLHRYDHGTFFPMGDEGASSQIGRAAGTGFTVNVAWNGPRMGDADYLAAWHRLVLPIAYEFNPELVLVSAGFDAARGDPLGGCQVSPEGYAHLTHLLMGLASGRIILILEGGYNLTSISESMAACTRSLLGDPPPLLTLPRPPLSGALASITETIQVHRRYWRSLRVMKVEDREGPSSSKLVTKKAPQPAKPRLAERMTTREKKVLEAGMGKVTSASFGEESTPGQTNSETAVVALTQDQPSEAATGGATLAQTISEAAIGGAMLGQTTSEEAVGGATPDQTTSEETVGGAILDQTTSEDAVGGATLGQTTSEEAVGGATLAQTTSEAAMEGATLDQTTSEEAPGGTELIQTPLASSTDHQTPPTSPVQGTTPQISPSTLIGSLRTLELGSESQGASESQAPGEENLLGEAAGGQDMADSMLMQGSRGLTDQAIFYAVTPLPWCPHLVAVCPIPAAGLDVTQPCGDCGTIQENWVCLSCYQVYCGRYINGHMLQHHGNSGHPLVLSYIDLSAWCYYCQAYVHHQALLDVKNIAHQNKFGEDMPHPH
Assay: fluorogenic enzyme inhibition assay; peptide in 5-fold dilution series with enzyme and fluorogenic substrate (Ac-Leu-Gly-Lys(Ac)-AMC or Ac-Leu-Gly-Lys(Tfa)-AMC), HEPES buffer pH 7.4, 30 min, 37 °C, trypsin development; Ki by the Cheng-Prusoff equation
Settings: both partners purified

B1: peptide 1a (parent H4K12 Asuha peptide) (peptide)
chain: KGGKGLG[Asuha″]GGAKRHR
Ki: 5.31 ± 0.03 nM

Reference: paper PMC7782793, “Hydroxamic acid-modified peptide microarrays for profiling isozyme-selective interactions and inhibition of histone deacetylases” (Nature Communications, 2021)
